Laboratory results taken from patent publication US10786543B2, “P75NTR antagonists and treatment of acute and chronic cardiac disease” (THE JOHNS HOPKINS UNIVERSITY, priority 2015, dated 2020).
Ends that are not written are not given here.

Assays:
p75^NTR = target: T1, p75^NTR (Mus musculus, UniProt Q9Z0W1); test: Transverse aortic constriction (TAC) pressure overload/heart failure with chronic P75NTR antagonist infusion, echocardiography; type: in vivo; settings: TAC mice; chronic infusion for 5 weeks, instituted 1 week after TAC; 200 μg/kg/day s.c. osmotic pump; FIG. 3
T1 construct: from tissue; host or cells: living mice (heart and other tissues) after transverse aortic constriction
T1 sequence (Q9Z0W1 32-427): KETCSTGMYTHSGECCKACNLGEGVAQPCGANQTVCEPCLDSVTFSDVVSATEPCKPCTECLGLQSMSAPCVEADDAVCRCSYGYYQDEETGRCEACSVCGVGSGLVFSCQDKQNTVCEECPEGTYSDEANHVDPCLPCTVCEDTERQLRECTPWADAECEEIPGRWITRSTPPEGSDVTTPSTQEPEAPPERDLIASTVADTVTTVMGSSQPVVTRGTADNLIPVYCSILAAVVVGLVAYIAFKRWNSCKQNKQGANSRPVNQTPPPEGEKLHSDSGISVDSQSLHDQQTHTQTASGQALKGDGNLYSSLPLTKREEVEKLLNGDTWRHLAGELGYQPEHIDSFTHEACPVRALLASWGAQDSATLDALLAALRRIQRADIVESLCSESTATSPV
Procedure: Transverse aortic constriction (TAC) was performed following a previously reported protocol (J. Clin. Invest., 2005; 115(5):1221-31; Circ. Res., 2010; 106(1):193-202; Antioxid Redox Signal 2014; 20(2):267-80). After induction of anesthesia and intubation, mice were placed on a volume ventilator (120 breaths/min, 1.2 ml/g/min) and anesthesia was maintained with […] isofluorane. The aortic arch was isolated and tied against a 27-gauge needle, resulting in a 65-70% constriction after the removal of the needle. The chest and skin were closed and animals extubated and allowed to fully recover. Sham-operated mice underwent the same operation except that after the aortic arch was isolated, no ligature was placed. The ALZET osmotic pump (Model 2004) with P75^NTR peptidic antagonist (200 μg/kg/day) or saline vehicle was placed subcutaneously one week after TAC. P75^NTR antagonistic cyclic peptide (CATDIKGAEC) (SEQ ID NO: 1) was synthesized at the Johns Hopkins Synthesis and Sequencing Facility. […]
In vivo cardiac morphology and function were assessed by serial M-mode echocardiography (Acuson Sequioa C256, 13 MHz transducer, Siemens, Pa.) performed in conscious mice. […] LV percent FS, EF and LV mass were calculated as described previously. […]

control mouse hearts = test: LV function and coronary tone in Langendorff-perfused control mouse hearts infused with proBDNF
From the text: (§1) After anesthesia, hearts were harvested and the aorta cannulated and retrogradely perfused with Krebs-Henseleit (KH) buffer warmed and gassed with 95% O2 and 5% CO2, as reported previously (Antioxid. Redox Signal, 2013; 19(11):1185-97). Briefly, hearts were paced at 600 bpm (10 Hz, 4 ms duration, 4 V) and LV function monitored with a water-filled balloon, connected to a pressure transducer coupled to a continuous data recording system. After stabilization, in addition to LV function parameters, baseline values of coronary perfusion pressure (CPP) were obtained through a side-arm of the aortic cannula connected to a separate pressure transducer.

[1] = test system: isolated p75^NTR-/- whole hearts; test: LV function and coronary tone in Langendorff-perfused isolated p75^NTR-/- whole hearts infused with proBDNF; set-up: species or system mouse; settings: hearts of mice lacking p75^NTR; FIG. 7
From the text: as §1

[2] = test system: isolated healthy mouse myocytes; test: Sarcomere shortening and whole Ca^2+ transient in isolated healthy mouse myocytes; type: cell-based; settings: directly applied to isolated healthy mouse myocytes
Procedure: Isolation of rat and mouse ventricular myocytes was carried out as previously described and approved by the Animal Care and Use Committee of Johns Hopkins University. Mice were anesthetized with intraperitoneal pentobarbital sodium (100 mg/kg). To assess for sarcomere shortening, cells were imaged using field stimulation (0.5 Hz) in an inverted fluorescence microscope (Diaphot 200; Nikon, Inc). Sarcomere length was measured by real-time Fourier transform (IonOptix MyoCam, CCCD100M). Twitch amplitude is expressed as a percentage of resting cell length. Twitch kinetics was quantified by measuring the time to peak shortening and the time from peak shortening to 50% relaxation. For whole Ca^2+ transient measurements, myocytes were loaded with the Ca^2+ indicator fluo-4/A M (Molecular Probes, 20 μM for 30 min) and Ca^2+ transients were measured under field-stimulation (0.5 Hz) in perfusion solution by confocal laser scanning microscope (LSM510, Carl Zeiss). Digital image analysis used customer-designed programs coded in Interactive Data Language (IDL).

CATDIKGAEC (also: cyclic)
LV ejection fraction (p75^NTR): preserved

B1: proBDNF: uncleaved (immature) neurotrophin, pro-brain derived neurotrophic factor, activates p75^NTR (protein, UniProt P23560 19-247, looked up)
pro-form: APMKEANIRGQGGLAYPGVRTHGTLESVNGPKAGSRGLTSLADTFEHVIEELLDEDQKVRPNEENNKDADLYTSRVMLSSQVPLEPPLLFLLEEYKNYLDAANMSMRVRRHSDPARRGELSVCDSISEWVTAADKKTAVDMSGGTVTVLEKVPVSKGQLKQYFYETKCNPMGYTKEGCRGIDKRHWNSQCRTTQSYVRALTMDSKKRIGWRFIRIDTSCVCTLTIKRGR
modifications: pro-form
coronary perfusion pressure (CPP), vasoconstriction (control mouse hearts; FIG. 4A): markedly higher
overall left-ventricle (LV) function: relaxation (control mouse hearts; FIG. 4F): reducing
overall left-ventricle (LV) function: contractility (control mouse hearts; FIGS. 4B, D and E): reducing
LV function [1]: does not alter
coronary vascular tone [1]: does not alter
amplitude of the whole Ca^2+ transient ([2]; FIGS. 5 and 6 lower panels): reduces
diastolic Ca^2+ levels ([2]; FIGS. 5 and 6 lower panels): rise
contractility (extent of sarcomere shortening) ([2]; FIGS. 5 and 6 upper panels): reduces
